A word on the Kd: it is a measure of binding affinity in units of concentration.

The test deals with TcdB4.2 (full-length recombinant toxin B variant 4.2) (Clostridioides difficile). Description: BLI; as a1, KD calculated with the BLItz system software from the indicated concentrations (Supplementary Fig. 7); KD called estimated. The following applies: both partners purified.

B1: mTFPI-Fc (Fc-tagged mouse TFPI) (Fc fusion)
chain: LSEEADDTDSELGSMKPLHTFCAMKADDGPCKAMIRSYFFNMYTHQCEEFIYGGCEGNENRFDTLEECKKTCIPGYEKTAVKAASGAERPDFCFLEEDPGLCRGYMKRYLYNNQTKQCERFVYGGCLGNRNNFETLDECKKICENPVHSPSPVNEVQMSDYVTDGNTVTDRSTVNNIVVPQSPKVPRRR
notes: source: Expi293F, transfected, purified from culture medium as His-tagged protein
Take B1: the Kd is about 63 nM.
